Blank lines part the entries; values can stand above or below the molecule they belong to.
Assays:
[1] = biological target: wild-type PAI-1 (human) (UniProt P05121)
[2] = biological target: NBD P9 PAI-1 (UniProt P05121)
[3] = biological target: wild-type PAI-1 (human) (UniProt P05121); remark: listed apart in the source
[4] = biological target: wild-type PAI-1 (human) (UniProt P05121); remark: listed apart in the source

percent substrate reaction by SDS-PAGE, with Nb64, +Vn [1]: 90% | percent substrate reaction by SDS-PAGE, with Nb64, −Vn [1]: 96% | klim/Km of RCL insertion, no Nb, −Vn ((μmol/ L)^−1 s^−1) [2]: 11.3 | klim/Km of RCL insertion, with Nb64, −Vn ((μmol/ L)^−1 s^−1) [2]: 14.7 | SI by SDS-PAGE, no Nb, −Vn [3]: 1.1 | SI by SDS-PAGE, with Nb42, +Vn [3]: 1.1 | SI by SDS-PAGE, with Nb42, −Vn [3]: 1.2 | SI by SDS-PAGE, with Nb42 and Nb64, −Vn [3]: 12.4 | SI by SDS-PAGE, with Nb64, +Vn [3]: 10 | SI by SDS-PAGE, with Nb64, −Vn [3]: 27
Molecule: two-chain urokinase-type plasminogen activator (enzyme)

Km ([PA] at half-saturation) of RCL insertion, no Nb, −Vn [2]: 0.22 µM | Km of RCL insertion, with Nb42, −Vn [2]: 1.2 µM | Km of RCL insertion, with Nb42 and Nb64, −Vn [2]: 1.4 µM | Km of RCL insertion, with Nb64, −Vn [2]: 0.17 µM | klim of RCL insertion (stopped-flow NBD fluorescence), no Nb, −Vn [2]: 1.5 s⁻¹ | klim of RCL insertion, with Nb42 and Nb64, −Vn [2]: 5.2 s⁻¹ | klim of RCL insertion, with Nb64, −Vn [2]: 1.4 s⁻¹ | klim/Km of RCL insertion, with Nb42 and Nb64, +Vn ((μmol/ L)^−1 s^−1) [2]: 1.1 | SI by SDS-PAGE, with Nb42, +Vn [3]: 1 | SI by SDS-PAGE, with Nb42, −Vn [3]: 1.1 | SI by SDS-PAGE, with Nb42 and Nb64, +Vn [3]: > 30 | SI by SDS-PAGE, with Nb42 and Nb64, −Vn [3]: 16.9 | SI by SDS-PAGE, with Nb64, +Vn [3]: > 30 | SI by SDS-PAGE, with Nb64, −Vn [3]: 15.6 | stoichiometry of inhibition (SI) by SDS-PAGE, no Nb, −Vn [3]: 1.1
Molecule: two-chain tissue-type plasminogen activator (enzyme)

IC50 of inhibition of PAI-1-wt activity, PAI-1/tPA, −Vn [4]: 16 nM | IC50 of inhibition of PAI-1-wt activity, PAI-1/uPA, −Vn [4]: 4.6 nM | IC50 of inhibition of the activity of Vn-bound PAI-1-wt, PAI-1/tPA [4]: 2.8 nM | IC50 of inhibition of the activity of Vn-bound PAI-1-wt, PAI-1/uPA [4]: 2 nM | maximum inhibition of PAI-1-wt activity, PAI-1/uPA, −Vn [4]: 88% | maximum inhibition of the activity of Vn-bound PAI-1-wt, PAI-1/tPA [4]: 93%
B1: VHH-2w-64 (VHH)
VHH: QVQLVESGGGLVQAGGSLRLSCAASGFTFDDYSIAWFRQAPGKEREGVSCISSSDGSAYYADSVKGRFTISSDNAKNTVYLQMNSLKPEDTAVYYCAAVWARVCRNPYDYWGQGTQVTVSS

IC50 of inhibition of PAI-1-wt activity, PAI-1/tPA, −Vn [4]: 87 nM
B2: VHH-2g-42 (VHH)
VHH: QVQLVESGGGLVQPGGRLRLSCAASGFTFRTYAMQWYRQSPGTERELVAAISNIGGVTDYGDSVKGRFTISRDNAKTTVYLEMNSLKPEDTATYYCSAVRLPQRYWGRGTQVTVSS

Reference: publication PMC8855783
